First the molecules themselves.
B1: FIXa-Y155F/R318Y/R338E/R403E/E410N (protein)
chain 1: not shown
chain 2: not shown
B2: FIXa-Y155F/R318Y/R338E/E410N (protein)
chain 1: not shown
chain 2: not shown
B3: FIXa-A103N/N105S/R318Y/R338E/R403E/E410N (protein)
chain 1: not shown
chain 2: not shown
B4: FIXa-R318Y/R338E/R403E/E410N (protein)
chain 1: not shown
chain 2: not shown
B5: FIXa-D104N/K106S/R318Y/R338E/R403E/E410N (protein)
chain 1: not shown
chain 2: not shown
B6: FIXa-K228N/R318Y/E410N (protein)
chain 1: not shown
chain 2: not shown
B7: FIXa-Y155F/R318Y/R403E/E410N (protein)
chain 1: not shown
chain 2: not shown
B8: FIXa-R318Y/R403E/E410N (protein)
chain 1: not shown
chain 2: not shown

Where “and” joins values, the source holds several entries; their conditions need not be identical. Equal entries are not always repeated.

The target in this data set is Factor X (FX), P00742.
Factor X (FX), P00742, sequence (P00742 whole entry, looked up): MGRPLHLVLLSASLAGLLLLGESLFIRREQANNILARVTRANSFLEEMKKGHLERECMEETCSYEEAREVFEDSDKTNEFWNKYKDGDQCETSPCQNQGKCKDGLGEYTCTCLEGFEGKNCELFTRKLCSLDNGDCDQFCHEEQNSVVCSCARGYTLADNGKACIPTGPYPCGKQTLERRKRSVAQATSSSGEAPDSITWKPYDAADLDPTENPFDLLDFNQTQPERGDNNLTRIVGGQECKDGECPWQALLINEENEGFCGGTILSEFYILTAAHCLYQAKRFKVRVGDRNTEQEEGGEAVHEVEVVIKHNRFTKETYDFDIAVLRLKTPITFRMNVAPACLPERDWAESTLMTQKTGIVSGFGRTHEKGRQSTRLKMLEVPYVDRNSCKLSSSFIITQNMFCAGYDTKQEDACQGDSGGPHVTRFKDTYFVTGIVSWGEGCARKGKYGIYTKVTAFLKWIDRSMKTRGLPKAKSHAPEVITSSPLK
Take B1: the “% of WT kcat/KM” value was 418% and 406%; the KM was determined as 0.0304 µM; the KM for FX activation by FIXa in the Xase complex (FVIIIa/PC-PS/Ca2+), fluorogenic Spectrafluor FXa assay worked out at 0.0304 µM; the kcat is 5.3 s⁻¹.
Consider B2, for which the “% of WT kcat/KM” value was 835% and 810%; the KM stood at 0.016 µM; the KM for FX activation by FIXa in the Xase complex (FVIIIa/PC-PS/Ca2+), fluorogenic Spectrafluor FXa assay came out at 0.016 µM; the catalytic constant (kcat) was found to be 5.6 s⁻¹.
Take B3: the “% of WT kcat/KM” value was 327% and 318%; the KM is 0.0447 µM; the KM for FX activation by FIXa in the Xase complex (FVIIIa/PC-PS/Ca2+), fluorogenic Spectrafluor FXa assay is 0.0447 µM; the kcat is 5.4 s⁻¹.
Take B4: the “% of WT kcat/KM” value is 262% and 320%; the KM was 0.0432 µM; the KM for FX activation by FIXa in the Xase complex (FVIIIa/PC-PS/Ca2+), fluorogenic Spectrafluor FXa assay was determined as 0.0455 µM; the kcat is 5.8 s⁻¹. Further, the kcat/KM stood at 1.2e+08 M⁻¹ s⁻¹.
Regarding B5, the “% of WT kcat/KM” value is 377% and 366%; the KM came to 0.0385 µM; the KM for FX activation by FIXa in the Xase complex (FVIIIa/PC-PS/Ca2+), fluorogenic Spectrafluor FXa assay is 0.0385 µM; the kcat came out at 5.7 s⁻¹.
B6: the “% of WT kcat/KM” value is 272% and 264%; the KM is 0.042 µM; the KM for FX activation by FIXa in the Xase complex (FVIIIa/PC-PS/Ca2+), fluorogenic Spectrafluor FXa assay worked out at 0.042 µM; the kcat was 5 s⁻¹.
Regarding B7, the “% of WT kcat/KM” value was determined as 78%, the KM is 0.111 µM and the kcat came to 2.9 s⁻¹.
In the case of B8, the “% of WT kcat/KM” value is 59% and 54%; the KM is 0.0942 µM; the KM for FX activation by FIXa in the Xase complex (FVIIIa/PC-PS/Ca2+), fluorogenic Spectrafluor FXa assay was determined as 0.0883 µM; the catalytic constant (kcat) was 2.3 s⁻¹. Besides, the kcat/KM came to 2.7e+07 M⁻¹ s⁻¹.

The term KM denotes the substrate concentration at which the rate is half of its maximum. By kcat is commonly meant the maximal rate divided by the concentration of active sites. For orientation: kcat/KM means the second-order rate constant that governs catalysis at low substrate concentration.
